Test results as given in article PMC7722741, “The bacterial multidrug resistance regulator BmrR distorts promoter DNA to activate transcription”.

B1: Pbmr-2 (mixed)
DNA 1: TTTAGAAAGATTTTGCAAATCCGTTGACTCTCCCCTAGGAGGAGGTCTTATAATGGGAGCTGTCACGGATGC
DNA 2: GCATCCGTGACAGCTCCCATTATAAGACCTCCTCCTAGGGGAGAGTCAACGGATTTGCAAAATCTTTCTAAA
B2: Pbmr-wt1 (dsDNA)
DNA 1: TTTAGAAAGATTTTGCAAATCCGTTGACTCTCCCCTAGGAGGAGGTCTTACAGTATAAGGGATACACACTTG
DNA 2: CAAGTGTGTATCCCTTATACTGTAAGACCTCCTCCTAGGGGAGAGTCAACGGATTTGCAAAATCTTTCTAAA

Target: BmrR;RNAP-sigmaA holoenzyme (Bacillus subtilis;Bacillus subtilis, UniProt P39075;P20429;P37870;P37871;O35011;O31718;P06224 …, |)
Experiment: EMSA; TPP 500 uM; heparin challenge; stable open complex stated in peer review file; EMSA: 10 mM HEPES pH 7.5, 100 mM KCl, 5 mM MgCl2, 3 mM DTT, 1 h room temperature, 0.75 uM RNAP, 0.5 uM DNA, 0 or 2 uM BmrR, 0 or 500 uM TPP, heparin 100 ug/ml when indicated; 5% TBE gel
Settings: protein: recombinant;native; tags: ;; chain copies: 2;2;1;1;1;1;1

Row | Binder | binding result
1 | B1 | binds
2 | B2 | binds
